{"source": "patent US20230002480A1", "assay_in_all_cases": "cell-based or functional assay", "key": {"[1]": {"molecular_target": "HIV-1 Env of pseudovirus CAP210.2.00.E8 (HIV-1)"}, "[2]": {"molecular_target": "HIV-1 Env of pseudovirus Du422.1 (HIV-1)"}, "[3]": {"molecular_target": "HIV-1 Env of pseudovirus ZM214M.PL15 (HIV-1)"}, "[4]": {"molecular_target": "HIV-1 Env of pseudovirus Ce703010054_2A2 (HIV-1)"}, "[5]": {"molecular_target": "HIV-1 Env of pseudovirus HIV-001428-2.42 (HIV-1)"}, "[6]": {"molecular_target": "HIV-1 Env of pseudovirus ZM109F.PB4 (HIV-1)"}, "[7]": {"molecular_target": "HIV-1 Env of pseudovirus Ce1176_A3 (HIV-1)"}, "[8]": {"molecular_target": "HIV-1 Env of pseudovirus CAAN5342.A2 (HIV-1)"}, "[9]": {"molecular_target": "HIV-1 Env of pseudovirus 1056_10_TA11_1826 (HIV-1)"}, "[10]": {"molecular_target": "HIV-1 Env of pseudovirus Ce0682_E4 (HIV-1)"}, "[11]": {"molecular_target": "HIV-1 Env of pseudovirus Du156.12 (HIV-1)"}, "[12]": {"molecular_target": "HIV-1 Env of pseudovirus MS208.A1 (HIV-1)"}, "[13]": {"molecular_target": "HIV-1 Env of pseudovirus ZM249M.PL1 (HIV-1)"}, "[14]": {"molecular_target": "HIV-1 Env of pseudovirus CNE20 (HIV-1)"}, "[15]": {"molecular_target": "HIV-1 Env of pseudovirus ZM233M.PB6 (HIV-1)"}, "[16]": {"molecular_target": "HIV-1 Env of pseudovirus Ce2010_F5 (HIV-1)"}, "[17]": {"molecular_target": "HIV-1 Env of pseudovirus ZM53M.PB12 (HIV-1)"}, "[18]": {"molecular_target": "HIV-1 Env of pseudovirus Ce0393_C3 (HIV-1)"}, "[19]": {"molecular_target": "HIV-1 Env of pseudovirus 1012_11_TC21_3257 (HIV-1)"}, "[20]": {"molecular_target": "HIV-1 Env of pseudovirus CNE53 (HIV-1)"}, "[21]": {"molecular_target": "HIV-1 Env of pseudovirus Q842.d12 (HIV-1)"}, "[22]": {"molecular_target": "HIV-1 Env of pseudovirus Q461.e2 (HIV-1)"}}}
{"substance": "N49P9 (antibody)", "values": [{"measurement": "IC50", "setting": "[1]", "value": "> 50", "unit": "µg/mL"}, {"measurement": "IC80", "setting": "[1]", "value": "> 50", "unit": "µg/mL"}, {"measurement": "MPI", "setting": "[1]", "value": 32}, {"measurement": "IC50", "setting": "[2]", "value": "> 50", "unit": "µg/mL"}, {"measurement": "IC80", "setting": "[2]", "value": "> 50", "unit": "µg/mL"}, {"measurement": "MPI", "setting": "[2]", "value": 17}, {"measurement": "IC50", "setting": "[3]", "value": 0.477, "unit": "µg/mL"}, {"measurement": "IC80", "setting": "[3]", "value": 1.99, "unit": "µg/mL"}, {"measurement": "MPI", "setting": "[3]", "value": 100}, {"measurement": "IC50", "setting": "[4]", "value": 0.187, "unit": "µg/mL"}, {"measurement": "IC80", "setting": "[4]", "value": 0.898, "unit": "µg/mL"}, {"measurement": "MPI", "setting": "[4]", "value": 98}, {"measurement": "IC50", "setting": "[5]", "value": 0.022, "unit": "µg/mL"}, {"measurement": "IC80", "setting": "[5]", "value": 0.106, "unit": "µg/mL"}, {"measurement": "MPI", "setting": "[5]", "value": 99}, {"measurement": "IC50", "setting": "[6]", "value": 0.075, "unit": "µg/mL"}, {"measurement": "IC80", "setting": "[6]", "value": 0.349, "unit": "µg/mL"}, {"measurement": "MPI", "setting": "[6]", "value": 99}, {"measurement": "IC50", "setting": "[7]", "value": 0.258, "unit": "µg/mL"}, {"measurement": "IC80", "setting": "[7]", "value": 0.919, "unit": "µg/mL"}, {"measurement": "MPI", "setting": "[7]", "value": 100}, {"measurement": "IC50", "setting": "[8]", "value": 2.09, "unit": "µg/mL"}, {"measurement": "IC80", "setting": "[8]", "value": 7.38, "unit": "µg/mL"}, {"measurement": "MPI", "setting": "[8]", "value": 100}, {"measurement": "IC50", "setting": "[9]", "value": 0.386, "unit": "µg/mL"}, {"measurement": "IC80", "setting": "[9]", "value": 1.32, "unit": "µg/mL"}, {"measurement": "MPI", "setting": "[9]", "value": 100}, {"measurement": "IC50", "setting": "[10]", "value": 0.049, "unit": "µg/mL"}, {"measurement": "IC80", "setting": "[10]", "value": 0.185, "unit": "µg/mL"}, {"measurement": "MPI", "setting": "[10]", "value": 100}, {"measurement": "IC50", "setting": "[11]", "value": 0.043, "unit": "µg/mL"}, {"measurement": "IC80", "setting": "[11]", "value": 0.13, "unit": "µg/mL"}, {"measurement": "MPI", "setting": "[11]", "value": 100}, {"measurement": "IC50", "setting": "[12]", "value": 0.08, "unit": "µg/mL"}, {"measurement": "IC80", "setting": "[12]", "value": 0.294, "unit": "µg/mL"}, {"measurement": "MPI", "setting": "[12]", "value": 100}, {"measurement": "IC50", "setting": "[13]", "value": 0.152, "unit": "µg/mL"}, {"measurement": "IC80", "setting": "[13]", "value": 0.801, "unit": "µg/mL"}, {"measurement": "MPI", "setting": "[13]", "value": 97}, {"measurement": "IC50", "setting": "[14]", "value": 0.465, "unit": "µg/mL"}, {"measurement": "IC80", "setting": "[14]", "value": 2.43, "unit": "µg/mL"}, {"measurement": "MPI", "setting": "[14]", "value": 97}, {"measurement": "IC50", "setting": "[15]", "value": "> 50", "unit": "µg/mL"}, {"measurement": "IC80", "setting": "[15]", "value": "> 50", "unit": "µg/mL"}, {"measurement": "MPI", "setting": "[15]", "value": 48}, {"measurement": "IC50", "setting": "[16]", "value": 0.089, "unit": "µg/mL"}, {"measurement": "IC80", "setting": "[16]", "value": 0.271, "unit": "µg/mL"}, {"measurement": "MPI", "setting": "[16]", "value": 100}, {"measurement": "IC50", "setting": "[17]", "value": 0.362, "unit": "µg/mL"}, {"measurement": "IC80", "setting": "[17]", "value": 1.14, "unit": "µg/mL"}, {"measurement": "MPI", "setting": "[17]", "value": 100}, {"measurement": "IC50", "setting": "[18]", "value": 0.189, "unit": "µg/mL"}, {"measurement": "IC80", "setting": "[18]", "value": 0.595, "unit": "µg/mL"}, {"measurement": "MPI", "setting": "[18]", "value": 100}, {"measurement": "IC50", "setting": "[19]", "value": 0.194, "unit": "µg/mL"}, {"measurement": "IC80", "setting": "[19]", "value": 0.591, "unit": "µg/mL"}, {"measurement": "MPI", "setting": "[19]", "value": 100}, {"measurement": "IC50", "setting": "[20]", "value": 0.123, "unit": "µg/mL"}, {"measurement": "IC80", "setting": "[20]", "value": 0.462, "unit": "µg/mL"}, {"measurement": "MPI", "setting": "[20]", "value": 99}, {"measurement": "IC50", "setting": "[21]", "value": 0.019, "unit": "µg/mL"}, {"measurement": "IC80", "setting": "[21]", "value": 0.057, "unit": "µg/mL"}, {"measurement": "MPI", "setting": "[21]", "value": 100}, {"measurement": "IC50", "setting": "[22]", "value": 0.271, "unit": "µg/mL"}, {"measurement": "IC80", "setting": "[22]", "value": 0.953, "unit": "µg/mL"}, {"measurement": "MPI", "setting": "[22]", "value": 100}]}
